Reference: publication PMC3276558, “The B-Cell Specific Transcription Factor, Oct-2, Promotes Epstein-Barr Virus Latency by Inhibiting the Viral Immediate-Early Protein, BZLF1”

Target: Oct-2 Q221A (UniProt P09086 1-479, Q221A)
Assay: EMSA; EMSA with in vitro-translated protein and 32P-labelled annealed ds oligonucleotide; buffer, salt, pH and temperature not given in the material
Conditions: protein: ivt; label: 32P (T4 PNK, 5' end); blunt

Oct-2 Q221A, sequence (P09086 whole entry Q221A): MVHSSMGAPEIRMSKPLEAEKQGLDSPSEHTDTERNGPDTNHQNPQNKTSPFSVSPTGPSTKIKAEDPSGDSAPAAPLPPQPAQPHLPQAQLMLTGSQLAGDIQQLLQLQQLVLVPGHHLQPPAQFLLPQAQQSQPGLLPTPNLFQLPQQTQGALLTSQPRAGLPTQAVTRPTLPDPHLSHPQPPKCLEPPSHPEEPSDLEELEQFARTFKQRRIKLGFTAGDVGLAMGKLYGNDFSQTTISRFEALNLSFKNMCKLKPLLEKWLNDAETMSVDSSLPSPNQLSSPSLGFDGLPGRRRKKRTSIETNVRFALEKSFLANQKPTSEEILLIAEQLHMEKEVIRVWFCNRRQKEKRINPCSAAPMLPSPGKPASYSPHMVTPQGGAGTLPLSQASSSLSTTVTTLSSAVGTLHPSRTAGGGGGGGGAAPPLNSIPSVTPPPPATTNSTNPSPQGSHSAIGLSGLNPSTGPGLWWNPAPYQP

B1: Oct probe (dsDNA)
DNA 1: CAGTGATGCAAATCTTGT
DNA 2: ACAAGATTTGCATCACTG
- binding result: no binding
